Laboratory results as given in PMC11570840.

Legend:
[1] = biological target: β2-adrenergic receptor C terminally fused with RlucII (β2AR-RlucII) (UniProt P07550); assay: FRET or BRET; live HEK293 cells co-transfected with donor β2AR-RlucII and acceptor NES-Venus-mGs, -mGsi or -mGsq; 48 h after transfection stimulated 20 min with increasing concentrations of ISO; 5 μM coelenterazine H in PBS; data as % of maximal ISO-induced mGs recruitment
[2] = biological target: β2-adrenergic receptor C terminally fused with RlucII (β2AR-RlucII) (UniProt P07550); assay: FRET or BRET; live HEK293 cells co-transfected with donor β2AR-RlucII and acceptor NES-Venus-mGsq; stimulated 20 min with increasing concentrations of ISO, epinephrine, norepinephrine or formoterol; data as % of maximal ISO-induced mGsq recruitment

| efficacy of ISO-induced recruitment, % of mGs [1] [%] | efficacy of recruitment with epinephrine, % of ISO [2] [%] | efficacy of recruitment with formoterol, % of ISO [2] [%] | efficacy of recruitment with norepinephrine, % of ISO [2] [%] | Substance |
| --- | --- | --- | --- | --- |
| 60 |  |  |  | NES-Venus-mGsi (mini G protein mGsi) |
| 20 | 60 | 80 | 40 | NES-Venus-mGsq (mini G protein mGsq) |
